Measurements from patent US20210283168A1, “BETA GLUCAN AND CD40 AGONIST COMBINATION IMMUNOTHERAPY” (HiberCell, Inc., priority 2018, published 2021).
“Also recorded” adds a separate entry of the source.

Legend:
CD40 [1] = target: T1, CD40 (Homo sapiens, UniProt P25942); conditions: binding to CD40; ADC-1013: even under acidic conditions (pH 5.4); read-out: binding affinity (Kd); cited from earlier work
FcgRIIIa = FcgRIIIa (Homo sapiens, UniProt P08637); conditions: non-fucosylated, derived from dacetuzumab; cited from earlier work
FcgRIIIa, sequence (P08637 17-254): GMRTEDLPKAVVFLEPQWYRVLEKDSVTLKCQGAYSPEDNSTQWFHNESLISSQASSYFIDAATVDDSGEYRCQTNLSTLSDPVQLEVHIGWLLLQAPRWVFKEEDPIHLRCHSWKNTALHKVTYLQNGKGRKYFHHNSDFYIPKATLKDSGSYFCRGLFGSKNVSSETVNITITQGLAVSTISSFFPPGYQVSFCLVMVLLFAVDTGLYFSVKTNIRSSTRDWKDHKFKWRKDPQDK

CD40 [2] = target: T1, CD40; conditions: cited from earlier work; for dependence on crosslinking for activity: CD40 stimulation
[3] = system: KPC-derived PDAC cell line (7940B, P9); assay: subcutaneous KPC-derived PDAC tumor model: tumor growth and overall survival; conditions: for anti-tumor activity / impact on tumor growth (in words): mouse, in vivo
[4] = target: CD40 ligand interaction with CD40 (Homo sapiens, UniProt P25942); conditions: cited from earlier work
CD40 ligand interaction with CD40, sequence (P25942 21-277): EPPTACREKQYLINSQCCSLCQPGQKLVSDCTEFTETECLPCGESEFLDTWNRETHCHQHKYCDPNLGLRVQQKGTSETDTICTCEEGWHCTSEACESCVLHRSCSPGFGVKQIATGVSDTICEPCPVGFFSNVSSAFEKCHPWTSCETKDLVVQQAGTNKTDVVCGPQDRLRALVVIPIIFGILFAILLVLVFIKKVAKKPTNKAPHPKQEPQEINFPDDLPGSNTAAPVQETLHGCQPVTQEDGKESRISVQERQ

FcR = conditions: cited from earlier work
B cell lymphoma lines = conditions: cited from earlier work
B cell = conditions: cited from earlier work
[5] = intravenous infusion, more than 400 human subjects; cited from earlier work

T1 sequence (P25942 21-277): as above

In the case of “SEA-CD40: non-fucosylated humanized IgG1 anti-CD40 antibody derived from dacetuzumab (Seattle Genetics)”, the Kd (CD40 [1]) is given as 1 nM, the “binding to FcgRIIIa” value (FcgRIIIa) is given as “enhanced binding” and the agonist activity (CD40 [2]) is given as “improved agonist activity”.

With `Nc1ccn([C@@H]2O[C@H](CO)[C@@H](O)C2(F)F)c(=O)n1` [Gemcitabine, reference compound] the “anti-tumor activity / impact on tumor growth (in words)” value [3] was “no significant impact on tumor growth”.

In the case of “CP-870,893: anti-CD40 IgG2 antibody (Pfizer and VLST)”, the Kd (CD40 [1]) is given as 0.348 nM, the “dependence on crosslinking for activity” value (CD40 [2]) is given as “can mediate CD40 stimulation in the absence of cross-linking” and the “ability to block CD40 ligand binding” value [4] is given as “does not block CD40 ligand interaction with CD40”. For the same molecule, the FcR binding (FcR) was “poor”.

In the case of “Dacetuzumab: humanized IgG1 antibody recognizing CD40 (Seattle Genetics)”, the Kd (CD40 [1]) is listed as 1 nM, the agonist activity (CD40 [2]) is listed as “partial agonist” and the “ability to block CD40 ligand binding” value [4] is listed as “enhances CD40 ligand binding to CD40”. The “anti-proliferative and pro-apoptotic properties against B cell lymphoma lines” value (B cell lymphoma lines) was “potent anti-proliferative and pro-apoptotic properties” and the “activity in stimulating B cell proliferation” value (B cell) was “weak activity”.

In the case of “β(1,6)-[poly-(1,3)-D-glucopyranosyl]-poly-β(1,3)-D-glucopyranose [IMPRIME PGG]”, the “anti-tumor activity / impact on tumor growth (in words)” value [3] is reported as “limited activity as monotherapy; also recorded: minimal activity”, the “delay in tumor outgrowth / anti-tumor activity, previous experiment” value ([3]; previous experiment (data not shown)) is reported as 3 of 9 and the “delay in tumor outgrowth (mice with delayed tumor growth)” value ([3]; single dose day 0: FGK45 0.1 mg i.p., IMPRIME PGG 1.2 mg i.v., gemcitabine 120 mg/kg day -2) is reported as 1 of 10. The “safety of systemic administration” value [5] was “administered safely”.

B1: ADC-1013 (antibody, chains of the INN, looked up, V domains shown)
VH: EVQLLESGGGLVQPGGSLRLSCAASGFTFSTYGMHWVRQAPGKGLEWLSYISGGSSYIFYADSVRGRFTISRDNSENALYLQMNSLRAEDTAVYYCARILRGGSGMDLWGQGTLVTVSS
VL: QSVLTQPPSASGTPGQRVTISCTGSSSNIGAGYNVYWYQQLPGTAPKLLIYGNINRPSGVPDRFSGSKSGTSASLAISGLRSEDEADYYCAAWDKSISGLVFGGGTKLTVL
In the case of B1, the Kd (CD40 [1]) is listed as 0.01 nM and the “dependence on crosslinking for activity” value (CD40 [2]) is listed as “activity dependent on FcR binding and crosslinking”.
